The values below come from paper PMC11869483.

What is called stoichiometry N is the number of molecules, sites or subunits per partner or assembly.

The assay concerns the target PcaLOOL12 (loosenin from Phanerochaete carnosa) produced in Pichia pastoris with a C-terminal His6-tag (Phanerochaete carnosa). Description: SEC-SAXS. In general terms: Size exclusion chromatography separates by hydrodynamic size, large species first.

For “PcaLOOL12 (loosenin from Phanerochaete carnosa) produced in Pichia pastoris with a C-terminal His6-tag (natural protein)”, the stoichiometry N is 2.
